# Test results taken from IntAct's records for PubMed 12486103.
# B1: Inhibitor of nuclear factor kappa-B kinase subunit alpha (Homo sapiens), O15111 (parent)
# chain: MERPPGLRPGAGGPWEMRERLGTGGFGNVCLYQHRELDLKIAIKSCRLELSTKNRERWCHEIQIMKKLNHANVVKACDVPEELNILIHDVPLLAMEYCSGGDLRKLLNKPENCCGLKESQILSLLSDIGSGIRYLHENKIIHRDLKPENIVLQDVGGKIIHKIIDLGYAKDVDQGSLCTSFVGTLQYLAPELFENKPYTATVDYWSFGTMVFECIAGYRPFLHHLQPFTWHEKIKKKDPKCIFACEEMSGEVRFSSHLPQPNSLCSLVVEPMENWLQLMLNWDPQQRGGPVDLTLKQPRCFVLMDHILNLKIVHILNMTSAKIISFLLPPDESLHSLQSRIERETGINTGSQELLSETGISLDPRKPASQCVLDGVRGCDSYMVYLFDKSKTVYEGPFASRSLSDCVNYIVQDSKIQLPIIQLRKVWAEAVHYVSGLKEDYSRLFQGQRAAMLSLLRYNANLTKMKNTLISASQQLKAKLEFFHKSIQLDLERYSEQMTYGISSEKMLKAWKEMEEKAIHYAEVGVIGYLEDQIMSLHAEIMELQKSPYGRRQGDLMESLEQRAIDLYKQLKHRPSDHSYSDSTEMVKIIVHTVQSQDRVLKELFGHLSKLLGCKQKIIDLLPKVEVALSNIKEADNTVMFMQGKRQKEIWHLLKIACTQSSARSLVGSSLEGAVTPQTSAWLPPTSAEHDHSLSCVVTPQDGETSAQMIEENLNCLGHLSTIIHEANEEQGNSMMNLDWSWLTE
# B2: Inhibitor of nuclear factor kappa-B kinase subunit beta (Homo sapiens), O14920 (parent)
# chain: MSWSPSLTTQTCGAWEMKERLGTGGFGNVIRWHNQETGEQIAIKQCRQELSPRNRERWCLEIQIMRRLTHPNVVAARDVPEGMQNLAPNDLPLLAMEYCQGGDLRKYLNQFENCCGLREGAILTLLSDIASALRYLHENRIIHRDLKPENIVLQQGEQRLIHKIIDLGYAKELDQGSLCTSFVGTLQYLAPELLEQQKYTVTVDYWSFGTLAFECITGFRPFLPNWQPVQWHSKVRQKSEVDIVVSEDLNGTVKFSSSLPYPNNLNSVLAERLEKWLQLMLMWHPRQRGTDPTYGPNGCFKALDDILNLKLVHILNMVTGTIHTYPVTEDESLQSLKARIQQDTGIPEEDQELLQEAGLALIPDKPATQCISDGKLNEGHTLDMDLVFLFDNSKITYETQISPRPQPESVSCILQEPKRNLAFFQLRKVWGQVWHSIQTLKEDCNRLQQGQRAAMMNLLRNNSCLSKMKNSMASMSQQLKAKLDFFKTSIQIDLEKYSEQTEFGITSDKLLLAWREMEQAVELCGRENEVKLLVERMMALQTDIVDLQRSPMGRKQGGTLDDLEEQARELYRRLREKPRDQRTEGDSQEMVRLLLQAIQSFEKKVRVIYTQLSKTVVCKQKALELLPKVEEVVSLMNEDEKTVVRLQEKRQKELWNLLKIACSKVRGPVSGSPDSMNASRLSQPGQLMSQPSTASNSLPEPAKKSEELVAEAHNLCTLLENAIQDTVREQDQSFTALDWSWLQTEEEEHSCLEQAS
# Variants of: B1
# Details: with ikba_human NFKBIA
row,Variant,effect of a mutation on the interaction
1,K44M,disrupting interaction

# Variants of: B2
# Details: with ikba_human NFKBIA
row,Variant,effect of a mutation on the interaction
1,K44A,decreasing interaction
